Each block holds one molecule with its values, some of them ahead of it.
How the values were obtained:
[1] = tested on: RAD51AP1 full-length, His6/FLAG (human); experiment: EMSA; conditions: apparent, EMSA: 50 mM Tris-HCl pH 7.5, 100 mM NaCl, 4 C, 30 min, native 5% PAGE in 0.2x TBE
[2] = target: mononucleosome core particle (NCP) (human) (UniProt P04908); experiment: native gel or EMSA; apparent; full-length RAD51AP1 with the NCP, free NCP band quantified after ethidium bromide staining, corrected for the diminished staining of NCP-bound DNA
purified human RAD51 = target: T1, purified human RAD51 (human, UniProt Q06609 1-339); experiment: far-Western, overlay or dot blot; RAD51AP1/NCP complex separated by EMSA (native gel), transferred to PVDF, membrane incubated with 3 ug/ml purified RAD51 in buffer I at 4 C overnight, bound RAD51 detected with anti-RAD51; conditions: both partners purified
T1 construct: DNA repair protein RAD51 homolog 1 (RAD51 recombinase), human; also called RAD51 recombinase; source: purified
T1 sequence (looked up): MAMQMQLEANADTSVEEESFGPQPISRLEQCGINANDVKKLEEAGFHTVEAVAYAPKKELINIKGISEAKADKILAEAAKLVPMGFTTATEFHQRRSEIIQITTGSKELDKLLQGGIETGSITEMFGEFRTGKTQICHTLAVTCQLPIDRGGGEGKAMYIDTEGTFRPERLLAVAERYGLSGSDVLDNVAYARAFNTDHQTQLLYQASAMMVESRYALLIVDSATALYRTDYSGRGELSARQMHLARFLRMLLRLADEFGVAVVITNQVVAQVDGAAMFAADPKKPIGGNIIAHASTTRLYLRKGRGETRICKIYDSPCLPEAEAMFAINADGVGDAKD

Molecule: NCP (Widom 601, 147 bp)
Kd ([1]; corrected for EtBr staining (111/5.2; uncorrected 111 nM), 0.2 uM NCP): 21 nM

Molecule: 147 bp dsDNA (Widom 601)
Kd ([1]; 0.1 uM DNA, EtBr stain): 12 nM

Kd [2]: 21 nM
Molecule: full-length MBP-/His6-RAD51AP1 (from UniProt Q96B01-2 1-335) (natural protein)

binding result (purified human RAD51): binds
B1: His6-/FLAG-tagged human RAD51AP1 (natural protein, UniProt Q96B01-2 1-335, looked up)
chain: MVRPVRHKKPVNYSQFDHSDSDDDFVSATVPLNKKSRTAPKELKQDKPKPNLNNLRKEEIPVQEKTPKKRMALDDKLYQRDLEVALALSVKELPTVTTNVQNSQDKSIEKHGSSKIETMNKSPHISNCSVASDYLDLDKITVEDDVGGVQGKRKAASKAAAQQRKILLEGSDGDSANDTEPDFAPGEDSEDDSDFCESEDNDEDFSMRKSKVKEIKKKEVKVKSPVEKKEKKSKSKCNALVTSVDSAPAAVKSESQSLPKKVSLSSDTTRKPLEIRSPSAESKKPKWVPPAASGGSRSSSSPLVVVSVKSPNQSLRLGLSRLARVKPLHPNATST
notes: numbers count on: RAD51AP1 isoform 2; also called His6/FLAG-tagged RAD51AP1; full-length FLAG-tagged RAD51AP1; source: expressed and purified

— paper PMC8233230, “RAD51AP1 mediates RAD51 activity through nucleosome interaction” (The Journal of Biological Chemistry, 2021)
